Results: patent US20250263462A1 (US Dept. of Health and Human Services, published 2025)

Assays:
Test in all cases: cell-based or functional assay
[1] = biological target: HLA-A11 on COS7/A11 cells expressing the KRAS G12D minigene (23-mer SEQ ID NO: 119) (human, UniProt A*11:01)
[2] = biological target: HLA-A11 on COS7/A11 cells expressing the KRAS G12V minigene (23-mer SEQ ID NO: 120) (human, UniProt A*11:01)
[3] = biological target: HLA-A11 on COS7/A11 cells expressing the WT KRAS minigene (23-mer SEQ ID NO: 118) (human, UniProt A*11:01)
[4] = biological target: T1, KRAS G12D 9-mer peptide KRAS8-16 … (SEQ ID NO: 34) presented by HLA-A11 on pulsed cells (human, UniProt A*11:01)
[5] = biological target: T2, WT KRAS 10-mer peptide (SEQ ID NO: 30) presented by HLA-A11 on pulsed cells (human, UniProt A*11:01)
[6] = biological target: KRAS G12D 9-mer peptide KRAS7-15 … (SEQ ID NO: 124) presented by HLA-A11 on pulsed cells (human, UniProt A*11:01)
[7] = biological target: KRAS G12V 10-mer peptide … (SEQ ID NO: 33) presented by HLA-A11 on pulsed cells (human, UniProt A*11:01)
[8] = biological target: T1, KRAS G12D 9-mer peptide KRAS8-16 … (SEQ …); remark: listed apart in the source
[9] = biological target: WT KRAS 9-mer peptide (SEQ ID NO: 31) presented by HLA-A11 on pulsed cells (human, UniProt A*11:01)
[10] = biological target: T2, WT KRAS 10-mer peptide (SEQ ID NO: 30) …; remark: listed apart in the source

B1: TRAV12N-3*01/BV4*01 murine anti-KRAS G12D TCR (SEQ ID NOs: 11 and 12) (TCR, V domains shown)
V domain 1: GDSVTQTEGLVTLTEGLPVMLNCTYQTIYSNPFLFWYVQHLNESPRLLLKSFTDNKRTEHQGFHATLHKSSSSFHLQKSSAQLSDSALYYCALRGNAGAKLTFGGGTRLTVRP
V domain 2: ETAVFQTPNYHVTQVGNEVSFNCKQTLGHDTMYWYKQDSKKLLKIMFSYNNKQLIVNETVPRRFSPQSSDKAHLNLRIKSVEPEDSAVYLCASSSRDWSAETLYFGSGTRLTVLE
[1]
  IFN-γ, PBL + COS/A11 minigene transfectant: > 10000 pg/mL
[2]
  IFN-γ, PBL + COS/A11 minigene transfectant: 126 pg/mL
[3]
  IFN-γ, PBL + COS/A11 minigene transfectant: 130 pg/mL
[4]
  IFN-γ, PBL + COS7/A11 pulsed at 1 × 10^-6 M: 136 pg/mL
  IFN-γ, PBL + COS7/A11 pulsed at 1 × 10^-7 M: 95 pg/mL
  IFN-γ, PBL + COS7/A11 pulsed at 1 × 10^-8 M: 99 pg/mL
  IFN-γ, PBL + COS7/A11 pulsed at 1 × 10^-9 M: 90 pg/mL
  IFN-γ, PBL + COS7/A11 pulsed at 1 × 10^-10 M: 85 pg/mL
  IFN-γ, PBL + COS7/A11 pulsed at 1 × 10^-11 M: 85 pg/mL
  IFN-γ, PBL + COS7/A11 pulsed at 1 × 10^-12 M: 94 pg/mL
  IFN-γ, PBL + COS7/A11 pulsed at 1 × 10^-13 M: 115 pg/mL
[5]
  IFN-γ, PBL + COS7/A11 pulsed at 1 × 10^-6 M: 78 pg/mL
  IFN-γ, PBL + COS7/A11 pulsed at 1 × 10^-7 M: 88 pg/mL
  IFN-γ, PBL + COS7/A11 pulsed at 1 × 10^-8 M: 102 pg/mL
  IFN-γ, PBL + COS7/A11 pulsed at 1 × 10^-9 M: 99 pg/mL
  IFN-γ, PBL + COS7/A11 pulsed at 1 × 10^-10 M: 95 pg/mL
  IFN-γ, PBL + COS7/A11 pulsed at 1 × 10^-11 M: 86 pg/mL
  IFN-γ, PBL + COS7/A11 pulsed at 1 × 10^-12 M: 102 pg/mL
  IFN-γ, PBL + COS7/A11 pulsed at 1 × 10^-13 M: 98 pg/mL
[6]
  IFN-γ, PBL + COS7/A11 pulsed at 1 × 10^-6 M: 87 pg/mL
  IFN-γ, PBL + COS7/A11 pulsed at 1 × 10^-7 M: 91 pg/mL
  IFN-γ, PBL + COS7/A11 pulsed at 1 × 10^-8 M: 72 pg/mL
  IFN-γ, PBL + COS7/A11 pulsed at 1 × 10^-9 M: 90 pg/mL
  IFN-γ, PBL + COS7/A11 pulsed at 1 × 10^-10 M: 90 pg/mL
  IFN-γ, PBL + COS7/A11 pulsed at 1 × 10^-11 M: 95 pg/mL
  IFN-γ, PBL + COS7/A11 pulsed at 1 × 10^-12 M: 83 pg/mL
  IFN-γ, PBL + COS7/A11 pulsed at 1 × 10^-13 M: 112 pg/mL
[7]
  IFN-γ, PBL + COS7/A11 pulsed at 1 × 10^-6 M: 97 pg/mL
  IFN-γ, PBL + COS7/A11 pulsed at 1 × 10^-7 M: 83 pg/mL
  IFN-γ, PBL + COS7/A11 pulsed at 1 × 10^-8 M: 86 pg/mL
  IFN-γ, PBL + COS7/A11 pulsed at 1 × 10^-9 M: 88 pg/mL
  IFN-γ, PBL + COS7/A11 pulsed at 1 × 10^-10 M: 88 pg/mL
  IFN-γ, PBL + COS7/A11 pulsed at 1 × 10^-11 M: 86 pg/mL
  IFN-γ, PBL + COS7/A11 pulsed at 1 × 10^-12 M: 96 pg/mL
  IFN-γ, PBL + COS7/A11 pulsed at 1 × 10^-13 M: 97 pg/mL
[8]
  IFN-γ, PBL + Cos7/A11 pulsed at 10^-6 M: 125 pg/mL
  IFN-γ, PBL + Cos7/A11 pulsed at 10^-7 M: 86 pg/mL
  IFN-γ, PBL + Cos7/A11 pulsed at 10^-8 M: 90 pg/mL
  IFN-γ, PBL + Cos7/A11 pulsed at 10^-9 M: 92 pg/mL
  IFN-γ, PBL + Cos7/A11 pulsed at 10^-10 M: 95 pg/mL
  IFN-γ, PBL + Cos7/A11 pulsed at 10^-11 M: 88 pg/mL
  IFN-γ, PBL + Cos7/A11 pulsed at 10^-12 M: 91 pg/mL
  IFN-γ, PBL + Cos7/A11 pulsed at 10^-13 M: 84 pg/mL
[9]
  IFN-γ, PBL + Cos7/A11 pulsed at 10^-6 M: 90 pg/mL
  IFN-γ, PBL + Cos7/A11 pulsed at 10^-7 M: 96 pg/mL
  IFN-γ, PBL + Cos7/A11 pulsed at 10^-8 M: 95 pg/mL
  IFN-γ, PBL + Cos7/A11 pulsed at 10^-9 M: 88 pg/mL
  IFN-γ, PBL + Cos7/A11 pulsed at 10^-10 M: 95 pg/mL
  IFN-γ, PBL + Cos7/A11 pulsed at 10^-11 M: 84 pg/mL
  IFN-γ, PBL + Cos7/A11 pulsed at 10^-12 M: 105 pg/mL
  IFN-γ, PBL + Cos7/A11 pulsed at 10^-13 M: 103 pg/mL
[10]
  IFN-γ, PBL + Cos7/A11 pulsed at 10^-6 M: 82 pg/mL
  IFN-γ, PBL + Cos7/A11 pulsed at 10^-7 M: 77 pg/mL
  IFN-γ, PBL + Cos7/A11 pulsed at 10^-8 M: 85 pg/mL
  IFN-γ, PBL + Cos7/A11 pulsed at 10^-9 M: 102 pg/mL
  IFN-γ, PBL + Cos7/A11 pulsed at 10^-10 M: 88 pg/mL
  IFN-γ, PBL + Cos7/A11 pulsed at 10^-11 M: 81 pg/mL
  IFN-γ, PBL + Cos7/A11 pulsed at 10^-12 M: 76 pg/mL
  IFN-γ, PBL + Cos7/A11 pulsed at 10^-13 M: 92 pg/mL
